Data from patent publication US20240239884A1 (Merck Sharp & Dohme, published 2024).

What was measured:
human IL-23 [1] = biological target: T1, human IL-23 (human, UniProt P29460 23-328); assay: equilibrium binding ELISA on plates coated with human IL-23; potency against reference material; storage at 5 C, initial
T1 construct: also called human IL-23 cytokine; human IL-23 protein
T1 sequence 1: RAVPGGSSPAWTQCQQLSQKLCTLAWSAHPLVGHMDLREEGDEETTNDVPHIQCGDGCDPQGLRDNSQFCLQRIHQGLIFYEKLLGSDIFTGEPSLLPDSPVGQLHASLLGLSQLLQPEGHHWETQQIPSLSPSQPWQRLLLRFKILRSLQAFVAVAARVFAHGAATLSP
T1 sequence 2: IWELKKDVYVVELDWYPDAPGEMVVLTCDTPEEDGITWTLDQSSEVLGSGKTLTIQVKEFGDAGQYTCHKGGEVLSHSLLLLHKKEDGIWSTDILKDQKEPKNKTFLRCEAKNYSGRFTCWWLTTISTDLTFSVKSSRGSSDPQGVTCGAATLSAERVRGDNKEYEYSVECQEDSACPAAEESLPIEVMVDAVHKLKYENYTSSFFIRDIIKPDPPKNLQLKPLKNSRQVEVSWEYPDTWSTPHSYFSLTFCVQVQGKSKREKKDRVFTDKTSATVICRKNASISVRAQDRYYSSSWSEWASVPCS
Method: (§1) The affinity of hum13B8-b in the formulations of the present invention for human IL-23 is assessed in an equilibrium binding ELISA, where serial dilutions of reference material and test samples are applied to assay plates coated with human IL-23 cytokine. This assay may be used, for example, to assess retention of biological activity in various potential therapeutic formulations. Relative potency of the test sample is assessed by comparison of the dose response curve of the test sample to the dose response curve of reference material and calculated as percent of reference.
(§2) ELISAs are performed by methods well known in the art. Briefly, serial dilutions of hum13B8-b in a formulation of the present invention are added to wells of a microtiter plate that had been previously coated with human IL-23 protein and then blocked. After an incubation period, wells are washed and a peroxidase-conjugated goat anti-human IgG (Fc) detection antibody reagent is added. Wells are again washed, and a chemiluminescent peroxidase substrate is added. Signal is read out by chemiluminescence. […] Relative biological potency is calculated by comparing results obtained with test samples with a standard curve based on signal levels obtained with a reference sample. […]

human IL-23 [2] = biological target: T1, human IL-23; assay: equilibrium binding ELISA on plates coated with human IL-23; potency against reference material; storage at 5 C, 6 months
Method: as §1, §2

human IL-23 [3] = biological target: T1, human IL-23; assay: equilibrium binding ELISA on plates coated with human IL-23; potency against reference material; storage condition 25H table, initial
Method: as §1, §2

human IL-23 [4] = biological target: T1, human IL-23; assay: equilibrium binding ELISA on plates coated with human IL-23; potency against reference material; storage condition RH4 table, initial
Method: as §1, §2

human IL-23 [5] = biological target: T1, human IL-23; assay: equilibrium binding ELISA on plates coated with human IL-23; potency against reference material; storage at 25H (25 C/60% RH), 6 months
Method: as §1, §2

human IL-23 [6] = biological target: T1, human IL-23; assay: equilibrium binding ELISA on plates coated with human IL-23; potency against reference material; storage at RH4 (40 C/75% RH), 6 months
Method: as §1, §2

human IL-23 [7] = biological target: T1, human IL-23; assay: equilibrium binding ELISA on plates coated with human IL-23; potency against reference material; storage at 5 C, 12 months (second Binding ELISA row)
Method: as §1, §2

human IL-23 [8] = biological target: T1, human IL-23; assay: equilibrium binding ELISA on plates coated with human IL-23; potency against reference material; storage at 5 C, 18 months (second Binding ELISA row)
Method: as §1, §2

human IL-23 [9] = biological target: T1, human IL-23; assay: equilibrium binding ELISA on plates coated with human IL-23; potency against reference material; storage at 5 C, 24 months (second Binding ELISA row)
Method: as §1, §2

human IL-23 [10] = biological target: T1, human IL-23; assay: equilibrium binding ELISA on plates coated with human IL-23; potency against reference material; storage at 25H (25 C/60% RH), 12 months (second Binding ELISA row)
Method: as §1, §2

Binding ELISA Potency relative to control [%] (human IL-23 [1]): 112%
Binding ELISA Potency relative to control [%] (human IL-23 [2]): 96%
Binding ELISA Potency relative to control [%] (human IL-23 [3]): 112%
Binding ELISA Potency relative to control [%] (human IL-23 [4]): 112%
Binding ELISA Potency relative to control [%] (human IL-23 [5]): 99%
Binding ELISA Potency relative to control [%] (human IL-23 [6]): 104%
Binding ELISA Potency relative to control [%] (human IL-23 [7]): 98%
Binding ELISA Potency relative to control [%] (human IL-23 [8]): 100%
Binding ELISA Potency relative to control [%] (human IL-23 [9]): 103%
Binding ELISA Potency relative to control [%] (human IL-23 [10]): 105%
B1: humanized anti-IL-23p19 antibody 13B8-b (antibody, human IgG1, kappa, V domains shown)
VH: QVQLVQSGAEVKKPGASVKVSCKASGYIFITYWMTWVRQAPGQGLEWMGQIFPASGSADYNEKFEGRVTMTTDTSTSTAYMELRSLRSDDTAVYYCARGGGGFAYWGQGTLVTVSS
VL: DIQMTQSPSSLSASVGDRVTITCRTSENIYSYLAWYQQKPGKAPKLLIYNAKTLAEGVPSRFSGSGSGTDFTLTISSLQPEDFATYYCQHHYGIPFTFGQGTKVEIKR
notes: Made in CHO cells; Tested as a stored formulation (10 mM histidine pH 6.0, 7% sucrose, 0.05% polysorbate 80, about 100 mg/ml); also called hum13B8-b; anti-IL-23p19 mAb hum13B8-b
